From US20210139548A1 (published 2021)
*1 amine or outer side, *2 acyl side, *3 side chain or, on linkers, in order; H or OH if unused. Side-chain parts run from the residue outwards. The star is where a group is joined. C18 diacid = O=C(O)CCCCCCCCCCCCCCCCC(=O)*; γGlu = O=C(O)[C@H](CCC(=O)[*:2])N[*:1]; Isovaleryl = CC(C)CC(=O)*; AEEA = NCCOCCOCC(=O)O

T1: human neuropeptide Y2 receptor (human, UniProt P49146 1-381)
T1 construct: whole, on cells; also called hNPY2 receptor; hNPY2-R
T1 sequence (looked up): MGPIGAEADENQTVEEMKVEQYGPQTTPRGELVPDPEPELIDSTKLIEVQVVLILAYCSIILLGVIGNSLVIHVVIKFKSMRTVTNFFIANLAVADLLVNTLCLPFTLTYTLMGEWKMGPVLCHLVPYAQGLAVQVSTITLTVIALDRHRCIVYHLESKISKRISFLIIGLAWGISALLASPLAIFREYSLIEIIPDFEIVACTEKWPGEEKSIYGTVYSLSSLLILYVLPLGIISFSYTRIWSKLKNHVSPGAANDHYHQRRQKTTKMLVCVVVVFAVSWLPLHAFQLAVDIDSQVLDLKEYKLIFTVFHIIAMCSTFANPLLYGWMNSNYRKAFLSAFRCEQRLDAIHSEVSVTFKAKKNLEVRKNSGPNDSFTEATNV

B1: Compound 16 (peptide)
peptide: Isovaleryl-APEK([AEEA-AEEA-γGlu-C18 diacid])PEEDASPEETQRYYVTLRHYYNWLTRQRY-NH2
SMILES: CC(C)CC(=O)N[C@@H](C)C(=O)N1CCC[C@H]1C(=O)N[C@@H](CCC(=O)O)C(=O)N[C@@H](CCCCNC(=O)COCCOCCNC(=O)COCCOCCNC(=O)CC[C@H](NC(=O)CCCCCCCCCCCCCCCCC(=O)O)C(=O)O)C(=O)N1CCC[C@H]1C(=O)N[C@@H](CCC(=O)O)C(=O)N[C@@H](CCC(=O)O)C(=O)N[C@@H](CC(=O)O)C(=O)N[C@@H](C)C(=O)N[C@@H](CO)C(=O)N1CCC[C@H]1C(=O)N[C@@H](CCC(=O)O)C(=O)N[C@@H](CCC(=O)O)C(=O)N[C@H](C(=O)N[C@@H](CCC(N)=O)C(=O)N[C@@H](CCCNC(=N)N)C(=O)N[C@@H](Cc1ccc(O)cc1)C(=O)N[C@@H](Cc1ccc(O)cc1)C(=O)N[C@H](C(=O)N[C@H](C(=O)N[C@@H](CC(C)C)C(=O)N[C@@H](CCCNC(=N)N)C(=O)N[C@@H](Cc1c[nH]cn1)C(=O)N[C@@H](Cc1ccc(O)cc1)C(=O)N[C@@H](Cc1ccc(O)cc1)C(=O)N[C@@H](CC(N)=O)C(=O)N[C@@H](Cc1c[nH]c2ccccc12)C(=O)N[C@@H](CC(C)C)C(=O)N[C@H](C(=O)N[C@@H](CCCNC(=N)N)C(=O)N[C@@H](CCC(N)=O)C(=O)N[C@@H](CCCNC(=N)N)C(=O)N[C@@H](Cc1ccc(O)cc1)C(N)=O)[C@@H](C)O)[C@@H](C)O)C(C)C)[C@@H](C)O
B2: Compound 24 (peptide)
peptide: Isovaleryl-APEK([AEEA-AEEA-γGlu-C18 diacid])PEEDASPEELQRYYVSLRKYYNWLTRQRY-NH2
SMILES: CC(C)CC(=O)N[C@@H](C)C(=O)N1CCC[C@H]1C(=O)N[C@@H](CCC(=O)O)C(=O)N[C@@H](CCCCNC(=O)COCCOCCNC(=O)COCCOCCNC(=O)CC[C@H](NC(=O)CCCCCCCCCCCCCCCCC(=O)O)C(=O)O)C(=O)N1CCC[C@H]1C(=O)N[C@@H](CCC(=O)O)C(=O)N[C@@H](CCC(=O)O)C(=O)N[C@@H](CC(=O)O)C(=O)N[C@@H](C)C(=O)N[C@@H](CO)C(=O)N1CCC[C@H]1C(=O)N[C@@H](CCC(=O)O)C(=O)N[C@@H](CCC(=O)O)C(=O)N[C@@H](CC(C)C)C(=O)N[C@@H](CCC(N)=O)C(=O)N[C@@H](CCCNC(=N)N)C(=O)N[C@@H](Cc1ccc(O)cc1)C(=O)N[C@@H](Cc1ccc(O)cc1)C(=O)N[C@H](C(=O)N[C@@H](CO)C(=O)N[C@@H](CC(C)C)C(=O)N[C@@H](CCCNC(=N)N)C(=O)N[C@@H](CCCCN)C(=O)N[C@@H](Cc1ccc(O)cc1)C(=O)N[C@@H](Cc1ccc(O)cc1)C(=O)N[C@@H](CC(N)=O)C(=O)N[C@@H](Cc1c[nH]c2ccccc12)C(=O)N[C@@H](CC(C)C)C(=O)N[C@H](C(=O)N[C@@H](CCCNC(=N)N)C(=O)N[C@@H](CCC(N)=O)C(=O)N[C@@H](CCCNC(=N)N)C(=O)N[C@@H](Cc1ccc(O)cc1)C(N)=O)[C@@H](C)O)C(C)C
B3: Compound 20 (peptide)
peptide: Isovaleryl-APEK([AEEA-AEEA-γGlu-C18 diacid])PEEDAAPEELQRYYVELRHYYNWLTRQRY-NH2
SMILES: CC(C)CC(=O)N[C@@H](C)C(=O)N1CCC[C@H]1C(=O)N[C@@H](CCC(=O)O)C(=O)N[C@@H](CCCCNC(=O)COCCOCCNC(=O)COCCOCCNC(=O)CC[C@H](NC(=O)CCCCCCCCCCCCCCCCC(=O)O)C(=O)O)C(=O)N1CCC[C@H]1C(=O)N[C@@H](CCC(=O)O)C(=O)N[C@@H](CCC(=O)O)C(=O)N[C@@H](CC(=O)O)C(=O)N[C@@H](C)C(=O)N[C@@H](C)C(=O)N1CCC[C@H]1C(=O)N[C@@H](CCC(=O)O)C(=O)N[C@@H](CCC(=O)O)C(=O)N[C@@H](CC(C)C)C(=O)N[C@@H](CCC(N)=O)C(=O)N[C@@H](CCCNC(=N)N)C(=O)N[C@@H](Cc1ccc(O)cc1)C(=O)N[C@@H](Cc1ccc(O)cc1)C(=O)N[C@H](C(=O)N[C@@H](CCC(=O)O)C(=O)N[C@@H](CC(C)C)C(=O)N[C@@H](CCCNC(=N)N)C(=O)N[C@@H](Cc1c[nH]cn1)C(=O)N[C@@H](Cc1ccc(O)cc1)C(=O)N[C@@H](Cc1ccc(O)cc1)C(=O)N[C@@H](CC(N)=O)C(=O)N[C@@H](Cc1c[nH]c2ccccc12)C(=O)N[C@@H](CC(C)C)C(=O)N[C@H](C(=O)N[C@@H](CCCNC(=N)N)C(=O)N[C@@H](CCC(N)=O)C(=O)N[C@@H](CCCNC(=N)N)C(=O)N[C@@H](Cc1ccc(O)cc1)C(N)=O)[C@@H](C)O)C(C)C
B4: Compound 21 (peptide)
peptide: Isovaleryl-APEK([AEEA-AEEA-γGlu-C18 diacid])PEEDASPEELQKYYVSLRHYYNWLTRQRY-NH2
SMILES: CC(C)CC(=O)N[C@@H](C)C(=O)N1CCC[C@H]1C(=O)N[C@@H](CCC(=O)O)C(=O)N[C@@H](CCCCNC(=O)COCCOCCNC(=O)COCCOCCNC(=O)CC[C@H](NC(=O)CCCCCCCCCCCCCCCCC(=O)O)C(=O)O)C(=O)N1CCC[C@H]1C(=O)N[C@@H](CCC(=O)O)C(=O)N[C@@H](CCC(=O)O)C(=O)N[C@@H](CC(=O)O)C(=O)N[C@@H](C)C(=O)N[C@@H](CO)C(=O)N1CCC[C@H]1C(=O)N[C@@H](CCC(=O)O)C(=O)N[C@@H](CCC(=O)O)C(=O)N[C@@H](CC(C)C)C(=O)N[C@@H](CCC(N)=O)C(=O)N[C@@H](CCCCN)C(=O)N[C@@H](Cc1ccc(O)cc1)C(=O)N[C@@H](Cc1ccc(O)cc1)C(=O)N[C@H](C(=O)N[C@@H](CO)C(=O)N[C@@H](CC(C)C)C(=O)N[C@@H](CCCNC(=N)N)C(=O)N[C@@H](Cc1c[nH]cn1)C(=O)N[C@@H](Cc1ccc(O)cc1)C(=O)N[C@@H](Cc1ccc(O)cc1)C(=O)N[C@@H](CC(N)=O)C(=O)N[C@@H](Cc1c[nH]c2ccccc12)C(=O)N[C@@H](CC(C)C)C(=O)N[C@H](C(=O)N[C@@H](CCCNC(=N)N)C(=O)N[C@@H](CCC(N)=O)C(=O)N[C@@H](CCCNC(=N)N)C(=O)N[C@@H](Cc1ccc(O)cc1)C(N)=O)[C@@H](C)O)C(C)C
B5: Compound 17 (peptide)
peptide: Isovaleryl-APEK([AEEA-AEEA-γGlu-C18 diacid])PEEDASPAELQRYYVSLRHYYNWLTRQRY-NH2
SMILES: CC(C)CC(=O)N[C@@H](C)C(=O)N1CCC[C@H]1C(=O)N[C@@H](CCC(=O)O)C(=O)N[C@@H](CCCCNC(=O)COCCOCCNC(=O)COCCOCCNC(=O)CC[C@H](NC(=O)CCCCCCCCCCCCCCCCC(=O)O)C(=O)O)C(=O)N1CCC[C@H]1C(=O)N[C@@H](CCC(=O)O)C(=O)N[C@@H](CCC(=O)O)C(=O)N[C@@H](CC(=O)O)C(=O)N[C@@H](C)C(=O)N[C@@H](CO)C(=O)N1CCC[C@H]1C(=O)N[C@@H](C)C(=O)N[C@@H](CCC(=O)O)C(=O)N[C@@H](CC(C)C)C(=O)N[C@@H](CCC(N)=O)C(=O)N[C@@H](CCCNC(=N)N)C(=O)N[C@@H](Cc1ccc(O)cc1)C(=O)N[C@@H](Cc1ccc(O)cc1)C(=O)N[C@H](C(=O)N[C@@H](CO)C(=O)N[C@@H](CC(C)C)C(=O)N[C@@H](CCCNC(=N)N)C(=O)N[C@@H](Cc1c[nH]cn1)C(=O)N[C@@H](Cc1ccc(O)cc1)C(=O)N[C@@H](Cc1ccc(O)cc1)C(=O)N[C@@H](CC(N)=O)C(=O)N[C@@H](Cc1c[nH]c2ccccc12)C(=O)N[C@@H](CC(C)C)C(=O)N[C@H](C(=O)N[C@@H](CCCNC(=N)N)C(=O)N[C@@H](CCC(N)=O)C(=O)N[C@@H](CCCNC(=N)N)C(=O)N[C@@H](Cc1ccc(O)cc1)C(N)=O)[C@@H](C)O)C(C)C
B6: Compound 19 (peptide)
peptide: Isovaleryl-APEK([AEEA-AEEA-γGlu-C18 diacid])PEADASPEELQQYYVSLRHYYNWLTRQRY-NH2
SMILES: CC(C)CC(=O)N[C@@H](C)C(=O)N1CCC[C@H]1C(=O)N[C@@H](CCC(=O)O)C(=O)N[C@@H](CCCCNC(=O)COCCOCCNC(=O)COCCOCCNC(=O)CC[C@H](NC(=O)CCCCCCCCCCCCCCCCC(=O)O)C(=O)O)C(=O)N1CCC[C@H]1C(=O)N[C@@H](CCC(=O)O)C(=O)N[C@@H](C)C(=O)N[C@@H](CC(=O)O)C(=O)N[C@@H](C)C(=O)N[C@@H](CO)C(=O)N1CCC[C@H]1C(=O)N[C@@H](CCC(=O)O)C(=O)N[C@@H](CCC(=O)O)C(=O)N[C@@H](CC(C)C)C(=O)N[C@@H](CCC(N)=O)C(=O)N[C@@H](CCC(N)=O)C(=O)N[C@@H](Cc1ccc(O)cc1)C(=O)N[C@@H](Cc1ccc(O)cc1)C(=O)N[C@H](C(=O)N[C@@H](CO)C(=O)N[C@@H](CC(C)C)C(=O)N[C@@H](CCCNC(=N)N)C(=O)N[C@@H](Cc1c[nH]cn1)C(=O)N[C@@H](Cc1ccc(O)cc1)C(=O)N[C@@H](Cc1ccc(O)cc1)C(=O)N[C@@H](CC(N)=O)C(=O)N[C@@H](Cc1c[nH]c2ccccc12)C(=O)N[C@@H](CC(C)C)C(=O)N[C@H](C(=O)N[C@@H](CCCNC(=N)N)C(=O)N[C@@H](CCC(N)=O)C(=O)N[C@@H](CCCNC(=N)N)C(=O)N[C@@H](Cc1ccc(O)cc1)C(N)=O)[C@@H](C)O)C(C)C

Molecular target: T1, human neuropeptide Y2 receptor
Assay: radioligand competition (125I-PYY(1-36)), hNPY2R membranes
Protocol: The filtration RLB assay was carried out in 96-well plates in a final volume of 100 μl per well. Freeze-dried test peptides were dissolved in 100% dimethyl sulfoxide (DMSO) to stock solutions of 1 mM and serial dilutions were performed in assay buffer (50 mM HEPES, 5 mM MgCl₂, 1 mM CaCl₂, pH 7.4) containing 0.2% ovalbumin. […] Next, 80 μL membranes (HTS066M, ChemiSCREEN™ Human Neuropeptide Y2 Receptor Membrane Preparation, CHEMICON) were added to each well to give a final protein concentration of 0.5 μg/well. The plates were sealed and incubated at room temperature for 2 hours in a plate shaker set at 400 rpm. The incubation was stopped by vacuum filtration onto 0.5% poly-ethylene amine (PEI) presoaked GF/C filters using a 96-well FilterMate™ harvester (Perkin Elmer) followed by four washes with 300 μl/well ice-cold wash buffer (50 mM HEPES, 500 mM NaCl, pH7.4). Filter plates were then dried for 60 min at room temperature and the bottom of the plates was sealed with backing tape UniFilter-96. Finally, 50 μl/well scintillation counter cocktail (Microscint20, Packard) was added and the radioactivity was counted in the Packard TopCount NXT scintillation counter. IC₅₀ values (the half maximal inhibitory concentration of the agonist) were calculated by nonlinear regression analysis of sigmoidal dose-response curves.

| Binder | Ki |
| --- | --- |
| B1 | 3.09 nM |
| B2 | 2.22 nM |
| B3 | 2.57 nM |
| B4 | 1.52 nM |
| B5 | 0.93 nM |
| B6 | 0.39 nM |
